Data from patent US20190248900A1.

Assays:
[1] = biological target: human PD-1 (NM_005018.2) over-expressed on cells (human) (UniProt Q15116); test: flow cytometry, 18 nM, panel 45D6
[2] = biological target: human PD-1 (NM_005018.2) over-expressed on cells (human) (UniProt Q15116); test: flow cytometry, 18 nM, panel 49A2
[3] = biological target: T1, ITGA6-Fc; test: ELISA (control row)
T1 sequence (P23229 whole entry, species assumed, looked up): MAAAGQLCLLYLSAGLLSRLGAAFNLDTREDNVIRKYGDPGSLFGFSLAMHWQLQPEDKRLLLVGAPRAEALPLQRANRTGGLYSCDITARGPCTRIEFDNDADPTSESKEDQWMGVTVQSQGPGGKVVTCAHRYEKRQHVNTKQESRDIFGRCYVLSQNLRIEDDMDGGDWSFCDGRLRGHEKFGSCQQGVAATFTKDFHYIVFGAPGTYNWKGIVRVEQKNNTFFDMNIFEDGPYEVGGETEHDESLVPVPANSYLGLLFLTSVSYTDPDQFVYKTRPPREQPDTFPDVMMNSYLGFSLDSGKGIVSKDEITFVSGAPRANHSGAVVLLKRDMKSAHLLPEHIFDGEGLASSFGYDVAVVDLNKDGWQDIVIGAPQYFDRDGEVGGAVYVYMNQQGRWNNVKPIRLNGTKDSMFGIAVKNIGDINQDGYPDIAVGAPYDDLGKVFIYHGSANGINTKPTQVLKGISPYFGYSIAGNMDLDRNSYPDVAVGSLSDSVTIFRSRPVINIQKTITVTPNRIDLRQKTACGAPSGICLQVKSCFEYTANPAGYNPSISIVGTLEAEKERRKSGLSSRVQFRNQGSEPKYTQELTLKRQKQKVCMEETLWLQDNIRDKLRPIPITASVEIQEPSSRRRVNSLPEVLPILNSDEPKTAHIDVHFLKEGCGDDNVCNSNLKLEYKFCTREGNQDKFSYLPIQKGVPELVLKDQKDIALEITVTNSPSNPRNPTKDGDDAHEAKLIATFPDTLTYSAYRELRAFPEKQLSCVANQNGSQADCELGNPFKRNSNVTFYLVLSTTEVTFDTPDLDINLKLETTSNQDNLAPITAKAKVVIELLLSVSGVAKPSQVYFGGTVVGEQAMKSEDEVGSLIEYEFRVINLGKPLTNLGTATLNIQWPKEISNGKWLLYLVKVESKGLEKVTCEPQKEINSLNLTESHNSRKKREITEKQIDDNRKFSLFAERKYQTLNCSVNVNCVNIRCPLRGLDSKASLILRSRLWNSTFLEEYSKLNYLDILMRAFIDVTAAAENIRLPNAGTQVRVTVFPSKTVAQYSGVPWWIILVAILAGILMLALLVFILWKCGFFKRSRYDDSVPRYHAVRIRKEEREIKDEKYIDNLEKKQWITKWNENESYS

[4] = biological target: T1, ITGA6-Fc; test: ELISA, 1 ug/ml

Sequence of Pembrolizumab (antibody) (VH): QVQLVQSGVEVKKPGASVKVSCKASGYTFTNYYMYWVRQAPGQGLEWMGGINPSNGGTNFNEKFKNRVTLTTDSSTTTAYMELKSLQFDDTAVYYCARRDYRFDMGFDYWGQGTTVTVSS
Sequence of Pembrolizumab (antibody) (VL): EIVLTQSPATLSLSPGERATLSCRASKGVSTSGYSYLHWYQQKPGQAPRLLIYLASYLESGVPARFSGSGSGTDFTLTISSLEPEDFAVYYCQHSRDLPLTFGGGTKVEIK
Sequence of human PD-1 (NM_005018.2) over-expressed on cells (human) (Q15116 25-288): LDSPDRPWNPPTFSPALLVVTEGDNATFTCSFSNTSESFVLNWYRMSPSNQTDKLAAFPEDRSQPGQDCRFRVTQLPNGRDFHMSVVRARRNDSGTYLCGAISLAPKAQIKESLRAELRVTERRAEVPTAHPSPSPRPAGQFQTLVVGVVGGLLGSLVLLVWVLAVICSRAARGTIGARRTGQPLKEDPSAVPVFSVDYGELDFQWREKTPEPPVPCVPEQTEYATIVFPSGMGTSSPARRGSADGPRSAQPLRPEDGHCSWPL

Substance	Geometric Mean [1]	Geometric Mean [2]	OD490 [3]	OD490 [4]
IgG (antibody)	50	50		
Nivolumab (antibody)			0.3	0.3
Pembrolizumab (antibody)			0.1	0.1
